According to publication PMC5916898, “Global profiling of protein–DNA and protein–nucleosome binding affinities using quantitative mass spectrometry”:

Columns and labels:
Assay in all cases: pulldown; 150 mM NaCl, 50 mM Tris pH 8, 0.25% NP-40, 1 mM TCEP; 4 C, 2 h; 100 ug HeLa nuclear lysate
Details in all cases: protein: extract; label: 5' biotin (strand 1)
[1] = biological target: T1, ESRRA (Homo sapiens, UniProt P11474)
T1 sequence: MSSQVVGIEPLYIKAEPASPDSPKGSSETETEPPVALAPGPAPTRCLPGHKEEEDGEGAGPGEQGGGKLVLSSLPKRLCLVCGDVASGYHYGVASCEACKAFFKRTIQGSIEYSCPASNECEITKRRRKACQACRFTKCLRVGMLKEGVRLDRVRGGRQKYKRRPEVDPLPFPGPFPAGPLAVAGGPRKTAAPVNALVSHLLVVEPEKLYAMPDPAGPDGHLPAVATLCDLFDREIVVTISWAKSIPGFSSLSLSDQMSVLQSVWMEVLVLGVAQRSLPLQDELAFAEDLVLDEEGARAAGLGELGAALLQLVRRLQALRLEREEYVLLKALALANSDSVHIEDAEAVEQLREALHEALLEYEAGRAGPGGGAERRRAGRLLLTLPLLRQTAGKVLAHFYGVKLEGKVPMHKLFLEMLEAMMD

[2] = biological target: ZNF24 (Homo sapiens, UniProt P17028)
[3] = biological target: T2, NFATC3 (Homo sapiens, UniProt Q12968)
T2 sequence: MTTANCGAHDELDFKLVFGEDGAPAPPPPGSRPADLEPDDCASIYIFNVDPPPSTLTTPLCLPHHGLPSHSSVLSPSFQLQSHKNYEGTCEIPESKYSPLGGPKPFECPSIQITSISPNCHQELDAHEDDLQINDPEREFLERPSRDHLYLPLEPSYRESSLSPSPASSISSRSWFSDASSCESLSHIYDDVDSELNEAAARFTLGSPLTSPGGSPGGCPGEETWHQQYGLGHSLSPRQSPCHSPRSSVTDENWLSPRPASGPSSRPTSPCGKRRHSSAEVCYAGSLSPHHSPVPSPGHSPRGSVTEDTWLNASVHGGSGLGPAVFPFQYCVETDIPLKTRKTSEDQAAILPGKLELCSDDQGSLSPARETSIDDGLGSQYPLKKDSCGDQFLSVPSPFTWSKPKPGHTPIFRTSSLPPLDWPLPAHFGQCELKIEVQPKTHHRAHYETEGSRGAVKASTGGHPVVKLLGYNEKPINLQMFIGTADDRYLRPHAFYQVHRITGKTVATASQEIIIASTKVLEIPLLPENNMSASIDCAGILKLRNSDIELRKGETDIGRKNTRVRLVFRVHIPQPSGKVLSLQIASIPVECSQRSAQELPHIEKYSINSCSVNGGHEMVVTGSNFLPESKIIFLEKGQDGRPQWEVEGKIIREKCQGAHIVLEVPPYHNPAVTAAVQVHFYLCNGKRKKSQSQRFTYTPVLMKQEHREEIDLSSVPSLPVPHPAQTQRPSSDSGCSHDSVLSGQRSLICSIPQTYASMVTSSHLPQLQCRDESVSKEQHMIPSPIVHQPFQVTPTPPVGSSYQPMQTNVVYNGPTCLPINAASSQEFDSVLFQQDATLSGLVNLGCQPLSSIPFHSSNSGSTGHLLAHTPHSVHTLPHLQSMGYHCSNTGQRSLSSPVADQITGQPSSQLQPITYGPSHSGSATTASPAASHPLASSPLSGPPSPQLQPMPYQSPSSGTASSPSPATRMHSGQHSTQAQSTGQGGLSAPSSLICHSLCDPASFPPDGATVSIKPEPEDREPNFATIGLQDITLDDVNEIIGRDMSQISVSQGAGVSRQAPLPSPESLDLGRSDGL

[4] = biological target: T3, ZBTB20 (Homo sapiens, UniProt Q9HC78)
T3 sequence: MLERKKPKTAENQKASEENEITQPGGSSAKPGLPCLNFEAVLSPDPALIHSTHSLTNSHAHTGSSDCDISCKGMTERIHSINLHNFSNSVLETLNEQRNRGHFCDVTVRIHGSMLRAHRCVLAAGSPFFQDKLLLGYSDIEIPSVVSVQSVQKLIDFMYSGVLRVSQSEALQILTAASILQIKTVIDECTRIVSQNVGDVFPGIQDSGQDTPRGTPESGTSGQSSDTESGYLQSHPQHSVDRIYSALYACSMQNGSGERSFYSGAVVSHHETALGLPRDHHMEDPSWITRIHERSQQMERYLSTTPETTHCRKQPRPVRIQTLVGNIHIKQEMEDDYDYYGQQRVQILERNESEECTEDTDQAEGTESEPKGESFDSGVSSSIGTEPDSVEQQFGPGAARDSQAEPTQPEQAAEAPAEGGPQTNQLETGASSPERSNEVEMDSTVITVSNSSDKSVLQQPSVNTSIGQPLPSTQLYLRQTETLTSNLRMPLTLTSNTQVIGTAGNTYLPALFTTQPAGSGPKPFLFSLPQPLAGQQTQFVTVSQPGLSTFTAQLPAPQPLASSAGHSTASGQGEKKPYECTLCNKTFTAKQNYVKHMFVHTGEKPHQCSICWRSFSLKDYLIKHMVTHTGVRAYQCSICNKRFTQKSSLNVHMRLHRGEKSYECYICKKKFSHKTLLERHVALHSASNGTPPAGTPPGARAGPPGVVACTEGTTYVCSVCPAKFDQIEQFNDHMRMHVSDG

[5] = biological target: ZFHX3 (Homo sapiens, UniProt Q15911)
ZFHX3, sequence (Q15911 whole entry): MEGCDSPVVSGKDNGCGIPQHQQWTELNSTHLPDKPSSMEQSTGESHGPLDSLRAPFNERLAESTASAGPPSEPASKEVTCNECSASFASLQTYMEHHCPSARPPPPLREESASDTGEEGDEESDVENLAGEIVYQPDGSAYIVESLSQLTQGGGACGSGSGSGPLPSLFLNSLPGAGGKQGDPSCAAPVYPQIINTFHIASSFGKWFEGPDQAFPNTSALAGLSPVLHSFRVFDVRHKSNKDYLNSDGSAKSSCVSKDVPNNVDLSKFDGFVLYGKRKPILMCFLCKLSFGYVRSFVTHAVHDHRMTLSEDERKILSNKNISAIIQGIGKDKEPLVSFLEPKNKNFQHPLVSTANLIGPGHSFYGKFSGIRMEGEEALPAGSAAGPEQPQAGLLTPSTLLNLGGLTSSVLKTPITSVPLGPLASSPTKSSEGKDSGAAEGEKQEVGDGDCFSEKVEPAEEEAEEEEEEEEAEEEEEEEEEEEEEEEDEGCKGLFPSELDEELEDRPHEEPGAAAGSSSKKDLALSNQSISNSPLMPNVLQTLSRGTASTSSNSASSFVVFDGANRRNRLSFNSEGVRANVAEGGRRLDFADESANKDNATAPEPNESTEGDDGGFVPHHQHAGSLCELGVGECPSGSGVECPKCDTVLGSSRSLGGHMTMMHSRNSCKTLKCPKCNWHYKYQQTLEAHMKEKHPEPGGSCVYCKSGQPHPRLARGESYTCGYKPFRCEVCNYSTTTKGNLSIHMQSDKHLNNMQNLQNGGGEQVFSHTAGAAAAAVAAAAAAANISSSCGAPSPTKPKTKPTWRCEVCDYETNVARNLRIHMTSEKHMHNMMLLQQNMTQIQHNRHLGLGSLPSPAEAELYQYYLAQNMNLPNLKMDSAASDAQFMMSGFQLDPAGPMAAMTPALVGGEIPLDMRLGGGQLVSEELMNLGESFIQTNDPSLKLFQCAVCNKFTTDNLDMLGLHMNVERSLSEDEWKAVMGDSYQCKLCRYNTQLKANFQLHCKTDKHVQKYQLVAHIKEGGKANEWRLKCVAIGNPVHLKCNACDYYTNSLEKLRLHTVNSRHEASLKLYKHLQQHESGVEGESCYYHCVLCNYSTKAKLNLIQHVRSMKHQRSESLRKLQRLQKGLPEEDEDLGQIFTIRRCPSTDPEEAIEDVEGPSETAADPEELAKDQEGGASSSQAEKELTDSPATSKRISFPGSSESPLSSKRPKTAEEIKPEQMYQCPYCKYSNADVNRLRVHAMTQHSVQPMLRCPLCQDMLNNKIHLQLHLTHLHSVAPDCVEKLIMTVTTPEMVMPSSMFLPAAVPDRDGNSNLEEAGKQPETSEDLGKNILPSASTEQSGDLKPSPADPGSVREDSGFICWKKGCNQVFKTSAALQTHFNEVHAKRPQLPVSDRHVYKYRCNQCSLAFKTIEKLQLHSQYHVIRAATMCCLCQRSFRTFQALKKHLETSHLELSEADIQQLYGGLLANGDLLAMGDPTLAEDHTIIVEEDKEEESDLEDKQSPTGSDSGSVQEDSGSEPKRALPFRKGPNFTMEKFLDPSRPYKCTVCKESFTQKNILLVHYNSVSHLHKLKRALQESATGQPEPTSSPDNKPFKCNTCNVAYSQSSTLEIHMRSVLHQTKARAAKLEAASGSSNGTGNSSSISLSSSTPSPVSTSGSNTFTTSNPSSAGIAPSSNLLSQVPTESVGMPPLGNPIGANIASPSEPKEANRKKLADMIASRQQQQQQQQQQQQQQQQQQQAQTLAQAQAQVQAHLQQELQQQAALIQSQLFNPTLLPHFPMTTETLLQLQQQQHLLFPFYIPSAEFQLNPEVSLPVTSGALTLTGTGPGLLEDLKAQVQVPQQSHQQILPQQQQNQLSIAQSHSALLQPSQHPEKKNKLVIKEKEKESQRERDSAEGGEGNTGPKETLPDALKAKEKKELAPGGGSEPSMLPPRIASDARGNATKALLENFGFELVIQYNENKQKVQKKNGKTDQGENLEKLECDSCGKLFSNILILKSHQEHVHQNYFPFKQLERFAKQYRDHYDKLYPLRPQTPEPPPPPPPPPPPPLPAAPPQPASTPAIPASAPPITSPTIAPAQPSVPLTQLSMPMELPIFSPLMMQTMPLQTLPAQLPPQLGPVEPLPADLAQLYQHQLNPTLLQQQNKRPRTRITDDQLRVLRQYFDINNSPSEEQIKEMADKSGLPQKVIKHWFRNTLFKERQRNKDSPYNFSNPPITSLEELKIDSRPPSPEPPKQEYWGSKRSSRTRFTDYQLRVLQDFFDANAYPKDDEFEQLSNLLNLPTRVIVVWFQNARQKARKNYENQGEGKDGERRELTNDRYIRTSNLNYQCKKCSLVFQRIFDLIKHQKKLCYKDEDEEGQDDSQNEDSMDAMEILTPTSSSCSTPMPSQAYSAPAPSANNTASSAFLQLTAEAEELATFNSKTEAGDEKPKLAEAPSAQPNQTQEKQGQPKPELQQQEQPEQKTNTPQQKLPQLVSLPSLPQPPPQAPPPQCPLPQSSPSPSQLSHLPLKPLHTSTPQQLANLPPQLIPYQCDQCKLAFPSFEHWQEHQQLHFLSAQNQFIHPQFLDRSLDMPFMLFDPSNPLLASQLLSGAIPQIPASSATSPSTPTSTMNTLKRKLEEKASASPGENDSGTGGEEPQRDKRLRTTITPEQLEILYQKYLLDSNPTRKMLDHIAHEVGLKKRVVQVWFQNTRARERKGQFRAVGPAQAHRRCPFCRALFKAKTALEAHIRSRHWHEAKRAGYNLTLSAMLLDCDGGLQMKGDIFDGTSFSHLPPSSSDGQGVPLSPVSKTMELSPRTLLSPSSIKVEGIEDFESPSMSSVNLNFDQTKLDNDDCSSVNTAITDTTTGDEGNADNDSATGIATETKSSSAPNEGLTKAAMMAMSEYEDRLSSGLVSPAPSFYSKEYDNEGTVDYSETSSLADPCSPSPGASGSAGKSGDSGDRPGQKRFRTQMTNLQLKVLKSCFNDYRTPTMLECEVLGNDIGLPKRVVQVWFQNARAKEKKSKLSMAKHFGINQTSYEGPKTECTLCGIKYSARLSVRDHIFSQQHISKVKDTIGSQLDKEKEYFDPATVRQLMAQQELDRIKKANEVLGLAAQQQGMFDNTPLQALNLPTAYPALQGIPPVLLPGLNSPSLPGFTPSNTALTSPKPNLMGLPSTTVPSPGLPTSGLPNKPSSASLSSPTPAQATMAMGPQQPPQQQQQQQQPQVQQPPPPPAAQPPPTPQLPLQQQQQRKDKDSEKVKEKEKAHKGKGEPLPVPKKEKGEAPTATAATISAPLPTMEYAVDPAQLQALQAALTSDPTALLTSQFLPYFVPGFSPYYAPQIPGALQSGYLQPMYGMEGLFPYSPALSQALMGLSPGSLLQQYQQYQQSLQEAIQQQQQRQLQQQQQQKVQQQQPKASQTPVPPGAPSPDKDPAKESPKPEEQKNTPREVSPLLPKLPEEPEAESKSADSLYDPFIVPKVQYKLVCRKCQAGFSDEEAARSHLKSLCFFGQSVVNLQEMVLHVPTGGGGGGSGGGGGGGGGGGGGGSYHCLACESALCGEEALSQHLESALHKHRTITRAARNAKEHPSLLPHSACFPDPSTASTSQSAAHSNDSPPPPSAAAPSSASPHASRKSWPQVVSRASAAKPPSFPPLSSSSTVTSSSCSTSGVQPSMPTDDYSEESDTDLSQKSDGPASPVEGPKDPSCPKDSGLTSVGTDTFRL

ZNF24, sequence (P17028 whole entry): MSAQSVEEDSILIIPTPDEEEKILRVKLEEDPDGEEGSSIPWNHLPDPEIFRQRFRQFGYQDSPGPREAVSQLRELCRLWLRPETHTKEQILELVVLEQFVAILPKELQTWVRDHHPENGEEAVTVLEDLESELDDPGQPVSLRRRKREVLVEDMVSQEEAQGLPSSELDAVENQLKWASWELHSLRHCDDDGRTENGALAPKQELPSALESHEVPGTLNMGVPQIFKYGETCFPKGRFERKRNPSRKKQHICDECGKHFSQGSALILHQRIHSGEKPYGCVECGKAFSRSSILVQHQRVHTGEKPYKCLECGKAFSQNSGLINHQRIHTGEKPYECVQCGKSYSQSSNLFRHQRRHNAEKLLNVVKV

B1: CTCF (dsDNA)
DNA 1: TCAGAGTGGCGGCCAGCAGGGGGCGCCCTTGCCAGA
DNA 2: TCTGGCAAGGGCGCCCCCTGCTGGCCGCCACTCTGA
B1 was tested, and the “apparent K (half saturation)” value [1] was 319 nM and the “apparent K (half saturation)” value [2] was 388 nM.

B2: TEAD (dsDNA)
DNA 1: TCGGGACCCAGGCCTGGAATGTTTCCACC
DNA 2: GGTGGAAACATTCCAGGCCTGGGTCCCGA
In the case of B2, the “apparent K (half saturation)” value [3] is reported as 46.7 nM.

B3: TATA-box (dsDNA)
DNA 1: GCGGCGCTCTATATAAGTGGGCAGTG
DNA 2: CACTGCCCACTTATATAGAGCGCCGC
B3 was tested, and the “apparent K (half saturation)” value [4] was 98.7 nM and the “apparent K (half saturation)” value [5] was 289 nM.
